Results on two compounds are retold here after paper PMC6348830, “In Vivo Biokinetics of ^177Lu-OPS201 in Mice and Pigs as a Model for Predicting Human Dosimetry” (Contrast Media & Molecular Imaging, 2019).

The nature of one data set: clinical. On the set-up: species or system patients (humans). The settings on record: both sexes, human, in vivo, total radioactivity. The procedure:
(§1) For analyzing the biokinetics of ^177Lu-labeled peptides in preclinical and clinical studies, the data of ^177Lu-OPS201 athymic nude Foxn1nu mice (28 females, weight: 26 ± 1 g, age: 8–9 weeks), Danish Landrace pigs (3 females-1 male, weight: 28 ± 2 kg, age: 3 months), and patients (3 females-1 male, weight: 61 ± 17 kg, age: 44–77 years) with administered activities of 0.19–0.27 MBq (mice, 0.017 µg of peptide), 97–113 MBq (pigs, 9 µg of peptide), and 850–1086 MBq (patients, 55–106 µg of peptide) were included. For pigs and patients, kidney protection was applied.
After administration of ^177Lu-OPS201, blood samples were taken up to 72 h for mice, up to 300 h for pigs, and up to 23 h for patients in order to measure the blood radioactivity contents by using the same well-type gamma counter (Packard Instruments). […] In order to convert the raw count values to blood uptake values per mL human blood in each time point, human blood data were quantified (in Bq/mL) retrospectively by using the same calibration factor as for the mouse study. […]
To quantify the amount of activity, the average percentage values corresponding to the injected radioactivity (A%) per organ as a function of time were calculated for the liver, right kidney, left kidney, and blood for each species via a manual VOI analysis (for pigs and patients) and via gamma counter (for mice). […]

A further data set can be described thus: in vivo. The arrangement: species or system Danish Landrace pigs. Conditions: both sexes, Danish Landrace, pig, total radioactivity. As to the method:
as §1
After administration of ^177Lu-OPS201, blood samples were taken up to 72 h for mice, up to 300 h for pigs, and up to 23 h for patients in order to measure the blood radioactivity contents by using the same well-type gamma counter (Packard Instruments). The human blood data were, originally, provided as relative values, normalized to the first blood sample immediately taken after injection. In order to convert the raw count values to blood uptake values per mL human blood in each time point, human blood data were quantified (in Bq/mL) retrospectively by using the same calibration factor as for the mouse study.
After injection, multiple whole body (WB) planar images and SPECT/CT scans were acquired at 0.5, 2, 3, 4, 50, 100, 150, and 250 h to quantify the uptake in the kidneys and liver. […]

The conditions of data set [1]: human, in vivo; cited from earlier work. As to the method: The fast blood clearance of the OPS201 in the first phase (<56 h) for each species was in agreement with studies of the agonist. […] For humans, most likely because of the short observation period, the value was lower (0.5 h). For the late phase in pigs, our result (58 h) is also close to the results obtained in the human study with the agonist (43 h). Part of an ongoing phase 1 study with ^177Lu-OPS201 in patients with SSTR-posi ...

Positions of bridges follow the written chain, without caps; N, C: chain ends. Non-standard residues stand in square brackets, D forms with d. Residues, ends and D or L forms follow the SMILES beside them. *: point of attachment. DOTA = O=C(O)CN1CCN(CC(=O)O)CCN(CC(=O)*)CCN(CC(=O)O)CC1; dPhe(4-NHCONH2) = NC(=O)Nc1ccc(C[C@@H](N)C(=O)O)cc1; Dihydroorotyl(S) = O=C1C[C@@H](C(=O)*)NC(=O)N1; Phe(4-Cl) = N[C@@H](Cc1ccc(Cl)cc1)C(=O)O; Phe(4-NH2) = Nc1ccc(C[C@H](N)C(=O)O)cc1

As to `C[C@@H](O)[C@@H]1NC(=O)[C@H](CCCCN)NC(=O)[C@@H](Cc2ccc(NC(N)=O)cc2)NC(=O)[C@H](Cc2ccc(NC(=O)[C@@H]3CC(=O)NC(=O)N3)cc2)NC(=O)[C@H](NC(=O)[C@H](Cc2ccc(Cl)cc2)NC(=O)CN2CCN(CC(=O)O)CCN(CC(=O)O)CCN(CC(=O)O)CC2)CSSC[C@@H](C(=O)N[C@H](Cc2ccc(O)cc2)C(N)=O)NC1=O` [177Lu-OPS201, metal not drawn] ({DOTA}-[Phe(4-Cl)][dC][Phe(4-NH2)](Dihydroorotyl(S))[dPhe(4-NHCONH2)]KTC[dY]-NH2; disulfide 2-7), the tissue uptake dose at 10 min in the data set “clinical” and in “in vivo” was under 5 %ID throughout.
For the compound `C[C@@H](O)[C@H](NC(=O)[C@@H]1CSSC[C@H](NC(=O)[C@@H](Cc2ccccc2)NC(=O)CN2CCN(CC(=O)[O-])CCN(CC(=O)[O-])CCN(CC(=O)[O-])CC2)C(=O)N[C@@H](Cc2ccc(O)cc2)C(=O)N[C@H](Cc2c[nH]c3ccccc23)C(=O)N[C@@H](CCCCN)C(=O)N[C@@H]([C@@H](C)O)C(=O)N1)C(=O)O.[177Lu+3]` [177Lu-octreotate, DOTA-[Tyr3]octreotate], in data set [1], the “half-life of late phase, blood” value is listed as 43 h and the “mean effective half-life of first phase, blood” value is given as 1.6 h.
